In this test the target is CX3CR1 (endogenous, on 3T3-L1 adipocytes) (mouse) (UniProt Q9Z0D9). The test can be described thus: cell-based or functional assay.
UniProt Q9Z0D9, sequence (Q9Z0D9 whole entry): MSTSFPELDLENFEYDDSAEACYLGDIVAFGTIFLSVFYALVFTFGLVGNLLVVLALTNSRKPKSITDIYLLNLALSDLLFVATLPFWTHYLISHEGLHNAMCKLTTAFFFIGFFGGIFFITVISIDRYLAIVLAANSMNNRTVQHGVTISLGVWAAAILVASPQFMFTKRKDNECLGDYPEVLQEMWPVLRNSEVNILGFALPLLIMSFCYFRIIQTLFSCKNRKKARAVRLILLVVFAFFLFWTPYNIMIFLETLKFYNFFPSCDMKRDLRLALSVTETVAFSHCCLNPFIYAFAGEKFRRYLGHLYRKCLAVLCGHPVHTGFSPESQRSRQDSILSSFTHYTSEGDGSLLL

As to “recombinant soluble fractalkine (ligand)”, the fold change in glucose uptake over vehicle pretreatment alone; +1 nM FRA, +0.1 nM INS came to 1.6 fold; the fold change in glucose uptake over vehicle pretreatment alone; +1 nM FRA, +1 nM INS was determined as 1.6 fold; the fold change in glucose uptake over vehicle pretreatment alone; +1 nM FRA, +10 nM INS was 0.9 fold; the fold change in glucose uptake over vehicle pretreatment alone; +1 nM FRA, basal came to 1.4 fold. Also, the fold change in glucose uptake over vehicle pretreatment alone; +10 nM FRA, +0.1 nM INS was 1.9 fold; the fold change in glucose uptake over vehicle pretreatment alone; +10 nM FRA, +1 nM INS was determined as 1.8 fold; the fold change in glucose uptake over vehicle pretreatment alone; +10 nM FRA, +10 nM INS turned out to be 0.9 fold; the fold change in glucose uptake over vehicle pretreatment alone; +10 nM FRA, basal was 1.3 fold. The fold change in glucose uptake over vehicle pretreatment alone; +100 nM FRA, +0.1 nM INS turned out to be 2 fold; the fold change in glucose uptake over vehicle pretreatment alone; +100 nM FRA, +1 nM INS was determined as 1.3 fold; the fold change in glucose uptake over vehicle pretreatment alone; +100 nM FRA, +10 nM INS is 1.1 fold; the fold change in glucose uptake over vehicle pretreatment alone; +100 nM FRA, basal turned out to be 1.3 fold. Besides, the mean 2-DOG uptake value; 1 nM FRA+0.1 nM INS came to 1090, the mean 2-DOG uptake value; 1 nM FRA+10 nM INS came out at 3660, the mean 2-DOG uptake value; 1 nM FRA+Basal came out at 544 and the mean 2-DOG uptake value; 1 nM FRA+nM INS (so in the source) was 3160. The mean 2-DOG uptake value; 10 nM FRA+0.1 nM INS amounted to 1280, the mean 2-DOG uptake value; 10 nM FRA+1 nM INS amounted to 3540, the mean 2-DOG uptake value; 10 nM FRA+10 nM INS is 3750 and the mean 2-DOG uptake value; 10 nM FRA+Basal was determined as 521. For the same substance, the mean 2-DOG uptake value; 100 nM FRA+0.1 nM INS worked out at 1350, the mean 2-DOG uptake value; 100 nM FRA+1 nM INS was found to be 2730, the mean 2-DOG uptake value; 100 nM FRA+10 nM INS was 4350 and the mean 2-DOG uptake value; 100 nM FRA+Basal came to 515.
